Data from paper PMC12492669, “Malic enzyme-based system for transhydrogenation between nicotinamide cofactors” (Synthetic and Systems Biotechnology, 2025).

How the values were obtained:
[1] = substrate: NC(=O)C1=CN([C@@H]2O[C@H](COP(=O)(O)OP(=O)(O)OC[C@H]3O[C@@H](n4cnc5c(N)ncnc54)[C@H](O)[C@@H]3O)[C@@H](O)[C@H]2O)C=CC1; assay: purified protein, by the assay type; set-up: initial rates at varied cofactor, absorbance at 340 nm, Michaelis-Menten fit, pH 7.5, 25 °C; settings: pH 7.5; 25.0 °C
Protocol: (§1) For malic enzymes involved in oxidative decarboxylation, the solution contained 5 mM L-malate and 2 mM MgCl2. For malic enzymes involved in reductive carboxylation, the solution included 10 mM pyruvate, 30 mM NaHCO3 and 2 mM MgCl2. For DLDH∗ involved in pyruvate reduction, initial pyruvate concentration was 10 mM. All reactions were performed in 50 mM HEPES (pH 7.5) at 25 °C, with kinetic data fitted to the Michaelis-Menten equation via nonlinear regression using GraphPad Prism 10.0.2. All assays were performed in triplicate, and error bars show standard deviation. Enzyme activity assays of pure enzymes were conducted in a total volume of 0.1 mL. […] The enzyme activity was monitored by measuring the absorbance at 340 nm using a microplate spectrophotometer (Bio-Tek, VT, USA), with continuous absorbance tracking throughout the assay. One unit of pure enzyme activity was defined as the amount of enzyme required to catalyze the production of 1 μmol NADH, NCDH or NADPH per minute under the specified assay conditions. A molar absorption coefficient of 6220 M^−1 cm^−1 for NADH, NCDH or NADPH was used in the calculations.

[2] = substrate: NC(=O)C1=CN([C@@H]2O[C@H](COP(=O)(O)OP(=O)(O)OC[C@H]3O[C@@H](n4cnc5c(N)ncnc54)[C@H](OP(=O)(O)O)[C@@H]3O)[C@@H](O)[C@H]2O)C=CC1; assay: purified protein, by the assay type; set-up: initial rates at varied cofactor, absorbance at 340 nm, Michaelis-Menten fit, pH 7.5, 25 °C; settings: pH 7.5; 25.0 °C
Protocol: as §1

[3] = substrate: NC(=O)c1ccc[n+]([C@@H]2O[C@H](COP(=O)(O)OP(=O)(O)OC[C@H]3O[C@@H](n4cnc5c(N)ncnc54)[C@H](OP(=O)(O)O)[C@@H]3O)[C@@H](O)[C@H]2O)c1; assay: purified protein, by the assay type; set-up: initial rates at varied cofactor, absorbance at 340 nm, Michaelis-Menten fit, pH 7.5, 25 °C; settings: pH 7.5; 25.0 °C
Protocol: as §1

[4] = substrate: NC(=O)C1=CN([C@@H]2O[C@H](COP(=O)(O)OP(=O)(O)OC[C@H]3O[C@@H](n4ccc(N)nc4=O)[C@H](O)[C@@H]3O)[C@@H](O)[C@H]2O)C=CC1; assay: initial rates of pyruvate reduction, Michaelis-Menten fit; type: biochemical, Lactobacillus helveticus; settings: 10 mM pyruvate, 50 mM HEPES pH 7.5, 25 °C, varied: cofactor
[5] = substrate: NC(=O)C1=CN([C@@H]2O[C@H](COP(=O)(O)OP(=O)(O)OC[C@H]3O[C@@H](n4cnc5c(N)ncnc54)[C@H](O)[C@@H]3O)[C@@H](O)[C@H]2O)C=CC1; assay: as above; type: biochemical, Lactobacillus helveticus; settings: 10 mM pyruvate, 50 mM HEPES pH 7.5, 25 °C, varied: cofactor
[6] = substrate: NC(=O)C1=CN([C@@H]2O[C@H](COP(=O)(O)OP(=O)(O)OC[C@H]3O[C@@H](n4cnc5c(N)ncnc54)[C@H](OP(=O)(O)O)[C@@H]3O)[C@@H](O)[C@H]2O)C=CC1; assay: as above; type: biochemical, Lactobacillus helveticus; settings: 10 mM pyruvate, 50 mM HEPES pH 7.5, 25 °C, varied: cofactor

B1: ME (Escherichia coli K-12) (protein)
chain: MEPKTKKQRSLYIPYAGPVLLEFPLLNKGSAFSMEERRNFNLLGLLPEVVETIEEQAERAWIQYQGFKTEIDKHIYLRNIQDTNETLFYRLVNNHLDEMMPVIYTPTVGAACERFSEIYRRSRGVFISYQNRHNMDDILQNVPNHNIKVIVVTDGERILGLGDQGIGGMGIPIGKLSLYTACGGISPAYTLPVVLDVGTNNQQLLNDPLYMGWRNPRITDDEYYEFVDEFIQAVKQRWPDVLLQFEDFAQKNAMPLLNRYRNEICSFNDDIQGTAAVTVGTLIAASRAAGGQLSEKKIVFLGAGSAGCGIAEMIISQTQREGLSEEAARQKVFMVDRFGLLTDKMPNLLPFQTKLVQKRENLSDWDTDSDVLSLLDVVRNVKPDILIGVSGQTGLFTEEIIREMHKHCPRPIVMPLSNPTSRVEATPQDIIAWTEGNALVATGSPFNPVVWKDKIYPIAQCNNAFIFPGIGLGVIASGASRITDEMLMSASETLAQYSPLVLNGEGMVLPELKDIQKVSRAIAFAVGKMAQQQGVAVKTSAEALQQAIDDNFWQAEYRDYRRTSI
notes: wild-type, recombinant
B1 was tested, and the Km [1] was 1080 ± 350 µM, the kcat [1] was 1.88 ± 0.35 s⁻¹ and the kcat/Km [1] was 1740 M⁻¹ s⁻¹. The Km [2] was 520 ± 120 µM, the kcat [2] was 0.01 s⁻¹ and the kcat/Km [2] was 20 M⁻¹ s⁻¹. The Km [3] was 11500 ± 1200 µM, the kcat [3] was 0.58 ± 0.05 s⁻¹ and the kcat/Km [3] was 50 M⁻¹ s⁻¹.

B2: DLDH∗ (D-lactate dehydrogenase, V152R/N213E mutant) (Lactobacillus helveticus; N213E/V152R) (protein)
chain: TKVFAYAIRKDEEPFLNEWKEAHKDIDVDYTDKLLTPETAKLAKGADGVVVYQQLDYTADTLQALADAGVTKMSLRNVGVDNIDMDKAKELGFQITNVPVYSPNAIAEHAAIQAARVLRQDKRMDEKMAKRDLRWAPTIGREVRDQVVGVRGTGHIGQVFMRIMEGFGAKVIAYDIFKNPELEKKGYYVDSLDDLYKQADVISLHVPDVPAEVHMINDKSIAEMKDGVVIVNCSRGRLVDTDAVIRGLDSGKIFGFVMDTYEDEVGVFNKDWEGKEFPDKRLADLIDRPNVLVTPHTAFYTTHAVRNMVVKAFNNNLKLINGEKPDSPVALNKNKF
notes: recombinant; only the V152R/N213E mutant tested; purification and tag not described in main text
B2 gave a Km [4] of 71.1 µM, a Km [5] of 4840 µM and a Km [6] of 2110 µM.
